Measured values from paper PMC9352551, “Energetic determinants of animal cell polarity regulator Par-3 interaction with the Par complex” (The Journal of Biological Chemistry, 2022).

T1: aPKC KD-PBM (Drosophila, UniProt A1Z9X0 259-606)
T1 construct: From pBH; also called his aPKC kinase domain-PBM; aPKC kinase domain–PBM; source: E. coli BL21 (DE3), his-purified (Ni-NTA) partially under denaturing conditions (8 M urea)
T1 sequence (looked up): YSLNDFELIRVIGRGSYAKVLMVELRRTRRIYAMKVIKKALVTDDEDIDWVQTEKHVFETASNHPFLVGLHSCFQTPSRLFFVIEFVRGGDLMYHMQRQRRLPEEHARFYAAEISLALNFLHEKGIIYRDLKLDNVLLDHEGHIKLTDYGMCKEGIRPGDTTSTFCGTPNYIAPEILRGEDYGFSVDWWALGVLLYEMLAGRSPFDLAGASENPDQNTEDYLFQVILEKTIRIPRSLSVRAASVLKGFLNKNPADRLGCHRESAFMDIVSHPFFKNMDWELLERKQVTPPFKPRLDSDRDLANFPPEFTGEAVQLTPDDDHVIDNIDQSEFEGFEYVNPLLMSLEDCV

T2: Par complex (his-Par-6, aPKC) (Drosophila, UniProt O97111 1-351; A1Z9X0 1-606)
T2 construct: Par-6, Drosophila, residues 1-351; atypical protein kinase C (aPKC), Drosophila, residues 1-606; Construct as in PMID 32084408; also called full Par complex; source: HEK 293F, transfected (pCMV), purified (Ni-NTA or cobalt resin, Source Q anion exchange)
T2 sequence (looked up) 1: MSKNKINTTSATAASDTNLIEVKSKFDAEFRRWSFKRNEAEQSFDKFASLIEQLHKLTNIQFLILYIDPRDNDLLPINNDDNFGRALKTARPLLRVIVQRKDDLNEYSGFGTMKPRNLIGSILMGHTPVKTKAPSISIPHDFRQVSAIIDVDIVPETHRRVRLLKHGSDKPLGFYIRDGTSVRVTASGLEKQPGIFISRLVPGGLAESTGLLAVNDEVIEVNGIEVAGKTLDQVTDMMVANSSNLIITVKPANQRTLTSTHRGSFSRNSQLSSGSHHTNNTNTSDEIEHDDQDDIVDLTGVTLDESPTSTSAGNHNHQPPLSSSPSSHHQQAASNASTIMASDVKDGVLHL
T2 sequence (looked up) 2: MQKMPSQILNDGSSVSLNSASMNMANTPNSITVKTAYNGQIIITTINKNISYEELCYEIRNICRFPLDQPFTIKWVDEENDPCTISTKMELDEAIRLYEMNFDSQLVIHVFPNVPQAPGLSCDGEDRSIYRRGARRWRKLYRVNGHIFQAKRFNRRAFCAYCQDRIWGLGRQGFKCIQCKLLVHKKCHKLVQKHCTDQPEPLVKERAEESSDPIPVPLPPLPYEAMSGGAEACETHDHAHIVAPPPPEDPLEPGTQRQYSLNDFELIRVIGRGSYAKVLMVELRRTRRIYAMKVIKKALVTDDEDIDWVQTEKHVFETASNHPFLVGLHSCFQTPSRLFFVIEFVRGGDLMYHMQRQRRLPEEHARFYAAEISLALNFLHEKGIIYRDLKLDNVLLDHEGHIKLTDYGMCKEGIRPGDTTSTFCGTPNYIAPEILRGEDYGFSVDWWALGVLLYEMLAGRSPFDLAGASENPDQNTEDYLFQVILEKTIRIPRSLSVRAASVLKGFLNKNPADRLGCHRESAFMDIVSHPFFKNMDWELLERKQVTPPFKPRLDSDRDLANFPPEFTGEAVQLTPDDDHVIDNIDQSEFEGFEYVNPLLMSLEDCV

B1: Par-3 PDZ3 (his-purified, soluble) (domain or fragment, Drosophila, UniProt O96782 616-741, looked up)
chain: HSREELTLHIPVHDTEKAGLGVSVKGKTCSNLNASGSSASSGSNGLMKHDGDLGIFVKNVIHGGAASRDGRLRMNDQLLSVNGVSLRGQNNAEAMETLRRAMVNTPGKHPGTITLLVGRKILRSAS
notes: Par-3 (Bazooka), Drosophila, residues 616-741; From pET19; source: E. coli BL21 (DE3), his-purified
B2: Par-3 PDZ2 (his-purified, soluble) (domain or fragment, Drosophila, UniProt O96782 444-533, looked up)
chain: QIMLKKGPNGLGFSVTTRDNPAGAHCPIYIKNILPRGAAIEDGRLKPGDRLLEVDGTPMTGKTQTDVVAILRGMPAGATVRIVVSRQQEL
notes: Par-3 (Bazooka), Drosophila, residues 444-533; From pET19; also called soluble PDZ2; source: E. coli BL21 (DE3), his-purified
B3: GST-Par-3 PDZ3 (domain or fragment, Drosophila, UniProt O96782 616-741, looked up)
chain: B1 chain
notes: Par-3 (Bazooka), Drosophila, residues 616-741; From pGEX; also called GST fused Par-3 PDZ3
B4: GST-Par-3 PDZ2 (domain or fragment, Drosophila, UniProt O96782 444-533, looked up)
chain: B2 chain
notes: Par-3 (Bazooka), Drosophila, residues 444-533; From pGEX; also called GST fused Par-3 PDZ2
B5: GST-Par-3 BR-PDZ2-3 (domain or fragment, Drosophila, UniProt O96782 426-741, looked up)
chain: PVGTSLQVANTRKLGRKIQIMLKKGPNGLGFSVTTRDNPAGAHCPIYIKNILPRGAAIEDGRLKPGDRLLEVDGTPMTGKTQTDVVAILRGMPAGATVRIVVSRQQELAEQADQPAEKSAGVAVAPSVAPPAVPAAAAPAPPIPVQKSSSARSLFTHQQQSQLNESQHFIDAGSESAASNDSLPPSSNSWHSREELTLHIPVHDTEKAGLGVSVKGKTCSNLNASGSSASSGSNGLMKHDGDLGIFVKNVIHGGAASRDGRLRMNDQLLSVNGVSLRGQNNAEAMETLRRAMVNTPGKHPGTITLLVGRKILRSAS
notes: Par-3 (Bazooka), Drosophila, residues 426-741; From pGEX
B6: GST-Par-3 BR-PDZ2 (domain or fragment, Drosophila, UniProt O96782 426-533, looked up)
chain: PVGTSLQVANTRKLGRKIQIMLKKGPNGLGFSVTTRDNPAGAHCPIYIKNILPRGAAIEDGRLKPGDRLLEVDGTPMTGKTQTDVVAILRGMPAGATVRIVVSRQQEL
notes: Par-3 (Bazooka), Drosophila, residues 426-533 (basic region and PDZ2); From pGEX
B7: GST-Par-3 PDZ2-3 (domain or fragment, Drosophila, UniProt O96782 444-741, looked up)
chain: QIMLKKGPNGLGFSVTTRDNPAGAHCPIYIKNILPRGAAIEDGRLKPGDRLLEVDGTPMTGKTQTDVVAILRGMPAGATVRIVVSRQQELAEQADQPAEKSAGVAVAPSVAPPAVPAAAAPAPPIPVQKSSSARSLFTHQQQSQLNESQHFIDAGSESAASNDSLPPSSNSWHSREELTLHIPVHDTEKAGLGVSVKGKTCSNLNASGSSASSGSNGLMKHDGDLGIFVKNVIHGGAASRDGRLRMNDQLLSVNGVSLRGQNNAEAMETLRRAMVNTPGKHPGTITLLVGRKILRSAS
notes: Par-3 (Bazooka), Drosophila, residues 444-741; From pGEX
B8: GST-Par-3 PDZ1-2 (domain or fragment, Drosophila, UniProt O96782 309-533, looked up)
chain: DGEMLLIINEYGSPLGLTALPDKEHGGGLLVQHVEPGSRAERGQLRRDDRILEINGIKLIGLTESQVQEQLRRALESSELRVRVLRGDRNRRQQRDSKVADMVEVATVSPTRKPHAAPVGTSLQVANTRKLGRKIQIMLKKGPNGLGFSVTTRDNPAGAHCPIYIKNILPRGAAIEDGRLKPGDRLLEVDGTPMTGKTQTDVVAILRGMPAGATVRIVVSRQQEL
notes: Par-3 (Bazooka), Drosophila, residues 309-533; From pGEX
B9: GST-Par-3 PDZ1-3 (domain or fragment, Drosophila, UniProt O96782 309-741, looked up)
chain: DGEMLLIINEYGSPLGLTALPDKEHGGGLLVQHVEPGSRAERGQLRRDDRILEINGIKLIGLTESQVQEQLRRALESSELRVRVLRGDRNRRQQRDSKVADMVEVATVSPTRKPHAAPVGTSLQVANTRKLGRKIQIMLKKGPNGLGFSVTTRDNPAGAHCPIYIKNILPRGAAIEDGRLKPGDRLLEVDGTPMTGKTQTDVVAILRGMPAGATVRIVVSRQQELAEQADQPAEKSAGVAVAPSVAPPAVPAAAAPAPPIPVQKSSSARSLFTHQQQSQLNESQHFIDAGSESAASNDSLPPSSNSWHSREELTLHIPVHDTEKAGLGVSVKGKTCSNLNASGSSASSGSNGLMKHDGDLGIFVKNVIHGGAASRDGRLRMNDQLLSVNGVSLRGQNNAEAMETLRRAMVNTPGKHPGTITLLVGRKILRSAS
notes: Par-3 (Bazooka), Drosophila, residues 309-741; From pGEX; also called Par-3 fragment containing its three PDZ domains
B10: MBP-Par-3 PDZ1-APMΔPDZ2 (domain or fragment, Drosophila, UniProt O96782 309-987, looked up)
chain: DGEMLLIINEYGSPLGLTALPDKEHGGGLLVQHVEPGSRAERGQLRRDDRILEINGIKLIGLTESQVQEQLRRALESSELRVRVLRGDRNRRQQRDSKVADMVEVATVSPTRKPHAAPVGTSLQVANTAEQADQPAEKSAGVAVAPSVAPPAVPAAAAPAPPIPVQKSSSARSLFTHQQQSQLNESQHFIDAGSESAASNDSLPPSSNSWHSREELTLHIPVHDTEKAGLGVSVKGKTCSNLNASGSSASSGSNGLMKHDGDLGIFVKNVIHGGAASRDGRLRMNDQLLSVNGVSLRGQNNAEAMETLRRAMVNTPGKHPGTITLLVGRKILRSASSSDILDHSNSHSHSHSNSSGGSNSNGSGNNNNSSSNASDNSGATVIYLSPEKREQRCNGGGGGGSAGNEMNRWSNPVLDRLTGGICSSNSAQPSSQQSHQQQPHPSQQQQQQRRLPAAPVCSSAALRNESYYMATNDNWSPAQMHLMTAHGNTALLIEDDAEPMSPTLPARPHDGQHCNTSSANPSQNLAVGNQGPPINTVPGTPSTSSNFDATYSSQLSLETNSGVEHFSRDALGRRSISEKHHA
notes: Par-3 (Bazooka), Drosophila, residues 309-987 with residues 437-533 deleted; From pMAL; construct as in PMID 32084408; not shown: MBP, N-terminal, kept; His tag, C-terminal, kept

Each binder was assayed against T1, aPKC KD-PBM (assay: pull-down; competition: GST-Par-3 PDZ2 or PDZ3 on glutathione resin with aPKC KD-PBM and the other PDZ domain as soluble competitor; room temperature, 30 to 60 min; 10 mM Hepes pH 7.5, 100 mM NaCl, 1 mM DTT, 200 μM ATP, 5 mM MgCl2, 0.1% Tween-20; Coomassie gel). Conditions: both partners purified.

Row | binding result | Binder
1 | binds | B1
2 | binds | B2

The binders below were run against T1, aPKC KD-PBM (assay: supernatant depletion assay; GST-fused protein on glutathione agarose resin (solid phase, 'ligand'); soluble protein ('receptor') left in the supernatant at equilibrium quantified on a Coomassie gel; 1 h at 20 °C; 10 mM Hepes pH 7.5, 100 mM NaCl, 1 mM DTT, 200 μM ATP, 5 mM MgCl2, 0.1% Tween-20; single-site equation; 'apparent' for Par-3 variants that could bind more than one Par complex; ATP replaced with ADP in one …). Conditions: both partners purified.

Row | binding result | Binder
3 | binds | B3
4 | binds | B4
5 | binds | B5
6 | binds | B6
7 | binds | B7
8 | binds | B8

Each binder was assayed against T2, Par complex (his-Par-6, aPKC) in the same assay as above. Conditions: both partners purified.

Row | binding result | Binder
9 | binds | B3
10 | binds | B4
11 | binds | B5
12 | binds | B6
13 | binds | B7
14 | binds | B9
15 | binds | B8

What follows are binders tested against T2, Par complex (his-Par-6, aPKC) (assay: supernatant depletion assay; MBP-Par-3 (C-terminal his-tag, his-purified) on amylose resin (solid phase); soluble protein left in the supernatant quantified on a Coomassie gel; 10 min at 20 °C; 10 mM Hepes pH 7.5, 100 mM NaCl, 1 mM DTT, 200 μM ATP, 5 mM MgCl2, 0.1% Tween-20; 'apparent'). Conditions: both partners purified.

Row | binding result | Binder
16 | binds | B10
